FireProtDB (doi:10.1002/pro.346)

conditions: Homo sapiens; pH 7.4; 25 °C; GdnHCl; CD; KPi 50 mM; structure 1TIT

| Substance | ddG of mutation (higher = less stable) [kcal/mol] | denaturant m value [kcal/mol/M] | denaturant midpoint (higher = more stable) [M] | unfolding free energy [kcal/mol] |
| --- | --- | --- | --- | --- |
| Titin Y12685F, Q8WZ42 | 0.4 | 2.2 | 2.5 | 5.5 |
| Titin Y12685G, Q8WZ42 | 0.8 | 2.2 | 2.3 | 5.1 |
| Titin Y12685P, Q8WZ42 | 2.2 | 2.2 | 1.7 | 3.7 |
| Titin Y12685S, Q8WZ42 | 0.2 | 2.2 | 2.6 | 5.7 |
